From the DeepSol protein solubility set

Test: soluble on expression in E. coli; label from the status in PepcDB or PDB records

Row | Sequence | soluble on expression in E. coli
1 | MAHHHHHHMARIISASELEKAADALARGNLVAIPTETVYGLGGNALNKEAVEKIFIVKGRPLTDPLICHVSDVEKAMDLWDVHADPEAVELARVLGTAIWPGPLTIVLRANPLLPNSVTGGSGFVGARIPRHEITLRLLQLVNFPVAAPSANTFGHVSPTTADHVLKDLGPKDSSLLIVDGGPCDIGIESTVVKVNNVESVEILRRGGVTLTEVLRALGDKFHPLITIRDTRLRHLSPEMAMDGPGQLLTHYSPNVPSRLLTPSSFTTNLPMDPEGALVEFSSNSSVAAPTEVLLRHTVIIDFGGKLQCLKPGCLAYRDLSVNAQVREACFAVFDALRWTETIPGAEVVLFPLVSGWPHASVDTDLLAAVEDRLFRAASGKVARIRMQSRSV | not soluble
2 | MTNSIRIGTRKSPLALIHTNLVIQQIKQFFPDINCEIVPIITSGDLIQNKPLYDIGGKALFLKEIEQALLDKKIDLAVHSLKDVPGRMPEPLVIAAVLEREDPRDVFVCLKYKSIEELPQNAVIGSSAVRRKAFIQKIRPDLKVTVFRGNVDSRIKKLMTGEVDATILAYTGLKRLEVFNPEYCHLIEYSQMLPCIGQGVIAVEIRKDDNAMLEICNQINHLPTFELIKPERAFLEYLDANCRTPIAAYSQYLDANPRHLSKLAYREVLEGNTEALATAAYKSNRTDASTGLTYKLPLEVEFGKVSNIQTNFMLGNLDGSKITFHTETTNIKTSTEAGIKAAKMMLEAICK | soluble
3 | VFALSNNLNRVNACMDGFLARIRSHVDAHAPELRSLFDTMAAEARFARDWLSEDLARLPVGAALLEVGGGVLLLSCQLAAEGFDITAIEPTGEGFGKFRQLGDIVLELAAARPTIAPCKAEDFISEKRFDFAFSLNVMEHIDLPDEAVRRVSEVLKPGASYHFLCPNYVFPYEPHFNIPTFFTKELTCRVMRHRIEGNTGMDDPKGVWRSLNWITVPKVKRFAAKDATLTLRFHRAMLVWMLERALTDKEFAGRRAQWMVAAIRSAVKLRVHHLAGYVPATLQPIMDVRLTKR | not soluble
4 | MGSDKIHHHHHHMWQAISRLLSEQLGEGEIELRNELPGGEVHAAWHLRYAGHDFFVKCDERELLPGFTAEADQLELLSRSKTVTVPKVWAVGADRDYSFLVMDYLPPRPLDAHSAFILGQQIARLHQWSDQPQFGLDFDNALSTTPQPNTWQRRWSTFFAEQRIGWQLELAAEKGIAFGNIDAIVEHIQQRLASHQPQPSLLHGDLWSGNCALGPDGPYIFDPACYWGDRECDLAMLPLHTEQPPQIYDGYQSVSPLPADFLERQPVYQLYTLLNRARLFGGQHLVIAQQSLDRLLAA | not soluble
5 | MYSYADRLRAVELYIRLGKRLNTTIRQLGYPTKNALRGWYREYVQHLDLRTQPVARAPKYSEAQRQAALEHFRTHDRCISGTMRALGYPGRGTLTAWVREAFPEARTSMVGRSWHPGYSEEVRQAGVIGLCSGDESAQQVADRLGVSRPTLYSWKDQLLGHEASSSMKRRKANPKVPEREELERKLEALQRDVRQLQLEHDLLKKANELLKKGLGVDLLILSNREKTQLIDALKEVYRLPELLAQLRIARSSYFYHRARMCLADKYAAVRLSLAEIFEANRRCYGYRRLQASLARKSVIVSEKVVQRLMKQEHLAVARPRRRRFGSYLGEISPAPENLINRDFHADAPNVKWLTDITEFQIPAGKVYLSPIIDCFDGMVISWSIGTQPDAGLVNTMLDAAIGTVANGEERPIIHSDRGAHYRWPGWLTRISEARLVRSMSRKGCSQDNAACEGFFGRLKTELFYPRDWKAITIEQFVAEVDAYIRWYNEKRIKISLGSLSPVEYRQSLGLKLAAALEHHHHHH | soluble
6 | IVGGYTCQENSVPYQVSLNSGYHFCGGSLINDQWVVSAAHCYKSRIQVRLGEHNINVLEGDEQFVNAAKIIKHPNFDRKTLNNNIMLIKLSSPVKLNARVATVALPSSCAPAGTQCLISGWGNTLSSGVNEPDLLQCLDAPLLPQADCEASYPGKITDNMVCVGFLEGGKDSCQGDSGGPVVCNGELQGIVSWGYGCALPDNPGVYTKVCNYVDWIQDTIAAN | soluble
7 | MSLDLPAHARVVIVGGGVMGVGLAYHLAHEGWGGDTVLLEKAELTSGSTWHAAGQITHSTSSFGLGKCVDYNIGLYSGKLEAETGQAVTWHGCGSFRLAYTEDEMDWLRHTLSVGRSLGFNIELVGPKRIAELHPFYNLDGVLGALHTPDDGHVDPTNVTMAMAAGARAKGVRIFRHTCATNITQGANGEWVVETGKGTITCEHVVNAGGTYARQMGEWSGLQLPMTSMTHHYFVTEPVPEFQSLDRELPVIRDDRKVSGYIRMEQKRGLIGIYEKANPNAVWIDECPWDYENWLFDADYDRVMPWLEESLNRMPIFADLGIQREVHGAISHPPDGNPLIGPAPGVRNYWCCCGTQIGIGWGPGLSRELARWIVHGAADISMRDFDPRRFGAYATKDWQVIKAREDYCLRHEIPFPHFNRLAGRPVKPSPLYDRLKEKGAVYEEVYGHERPRWFARGIEQRDHYGFGRTPVHDMVATECAAVRSAAGIMDISAFTRVEVSGPDAGALLDRLTANRLPQKPGGIALTHMLNRRGRIELETTVVKLDEDRFYLVCAAFFEQRLLDHLAAHRGTADITVRNLSTDWAALALNGPHARDILAACTEADLSNARFKWLTAQQITVAGHSLWALRMSYAGELGWELHIPRDHALAVYDALWAAGQRYGLTDYGSFAMNALRMEKAFKGAGELTNEVTLAEADVLRFARTDKDYLGRDKTLNAGNLPWVCAYLEIAPDGRFDGNGGEAVLLDGKVVGSTASVAYGHTVGKILAFAYVKPQVNVPGTEVEVIIAGNPRKGRILGAPAYDPDSTKPRADAEGHHHHHH | soluble
8 | MAHHHHHHMNERTSGGAMSTIQFGGTMTTTLSQAKNMDFSNDSPRRRRNRHNVILFPNHRDRLACDPLNFFCVYATYEYRWSDTTLEAERNIFALVDSMVAAVRKAFDDAFERWKNMPAFVQHAHTLRSAVSFSSALSTNTLLHMYSHADNVARHTTLRKTLGSMLPSLPAANPRQEMNICSASSAGRSTFSKGALPRAAHRERREEEEEAVMKNLAKQWIPPHNGPKCRLVLDIVASRKTLGDDPVISDPYRLGQKVFSFTRRNYLREVINTFVGISDSGVTLVGRDILYPFRSTGGGSPKPSVKMNSLSGNRRNLSGSAISGLPIDSGDILGVAASGGVAAKVSGFEQILANTIPVPRMVPVPPTNTEKVDNIRLLVCFPPNDISGSVA | soluble
9 | MSLKISLENVGCASQIGKRKENEDRFDFAQLTDEVLYFAVYDGHGGPAAADFCHTHMEKCIMDLLPKEKNLETLLTLAFLEIDKAFSSHARLSADATLLTSGTTATVALLRDGIELVVASVGDSRAILCRKGKPMKLTIDHTPERKDEKERIKKCGGFVAWNSLGQPHVNGRLAMTRSIGDLDLKTSGVIAEPETKRIKLHHADDSFLVLTTDGINFMVNSQEICDFVNQCHDPNEAAHAVTEQAIQYGTEDNSTAVVVPFGAWGKYKNSEINFSFSRSFASSGRWAEGHHHHHH | soluble
10 | RCGAGGYEALRGPLGAAGRRARQAWTIAPGSRRRGKAAAQSSVPGAGHAGGGAAPRRPAAAVRPGSPPLAGALTPRPSPLQGPFPGRLLAGPPPRFPGGTMTDTRRRVKVYTLNEDRQWDDRGTGHVSSGYVERLKGMSLLVRAESDGSLLLESKINPNTAYQKQQDTLIVWSEAENYDLALSFQEKAGCDEIWEKICQVQGKDPSVDITQDLVDESEEERFDDMSSPGLELPSCELSRLEEIAELVASSLPSPLRREKLALALENEGYIKKLLELFHVCEDLENIEGLHHLYEIIKGIFLLNRTALFEVMFSEECIMDVIGCLEYDPALSQPRKHREFLTKTAKFKEVIPISDPELKQKIHQTYRVQYIQDMVLPTPSVFEENMLSTLHSFIFFNKVEIVGMLQEDEKFLTDLFAQLTDEATDEEKRQELVNFLKEFCAFSQTLQPQNRDAFFKTLSNMGILPALEVILGMDDTQVRSAATDIFSYLVEYNPSMVREFVMQEAQQNDDDILLINLIIEHMICDTDPELGGAVQLMGLLRTLVDPENMLATANKTEKTEFLGFFYKHCMHVLTAPLLANTTEDKPSKDDFQTAQLLALVLELLTFCVEHHTYHIKNYIINKDILRRVLVLMASKHAFLALCALRFKRKIIGLKDEFYNRYIMKSFLFEPVVKAFLNNGSRYNLMNSAIIEMFEFIRVEDIKSLTAHVIENYWKALEDVDYVQTFKGLKLRFEQQRERQDNPKLDSMRSILRNHRYRRDARTLEDEEEMWFNTDEDDMEDGEAVVSPSDKTKNDDDIMDPISKFMERKKLKESEEKEVLLKTNLSGRQSPSFKLSLSSGTKTNLTSQSSTTNLPGSPGSPGSPGSPGSPGSVPKNTSQTAAITTKGGLVGLVDYPDDDEDDDEDEDKEDTLPLSKKAKFDS | soluble
11 | MAEAESVSVDGWDFSWLDGRATEQRPSWGYQRLMGERLARANAALDIQTGGGEVLAGAMTMPPVMVATESWPPNVAKATALLHPLGAVVVADADEPPLPFAEGAFDLVTSRHPATVWWDEIARVLRPGGTYFSQHVGHASVFELVEYFLGPQPTRPASSSRPANAADSAHRLRPVEGLPDDVGVPGVLGGLPDDVEQDPARGPA | not soluble
12 | GPGSMSSLQKINDIEAELARTQKNKATMAHICALKARLAQLKRELIASESKKGGGKGEGFDVQKTGDARIGFIGFPSVGKSTLLSKMTSTHSEVAAYEFTTLTCVPGVVNYRGAKLQMLDLPGIIEGAKDGKGRGRQVIAVARTCSLILIVLDIAKPLQHKLIIERELDGFGIRLNKSPPDIVIRKKDRGGISISSTCPLTHIDQETIKIILGEYRMANADVTFRGDYTADEFIDAIEGNRAYIPAIYVLNKIDQISIEELDIVARIPHNCPISAHHEWNLDGLLECIWDHLNFIRVYTKPKGQVPDYDAPVILKKSPQPSVESFCNRIHRQLIRNYKYAWVWGSSVKHQPQRVGKDHSLDDEDVVQVVKKV | not soluble
13 | MNSITVRNATFTWARSDPPTLNGITFSIPEGALVAVVGQVGCGKSSLLSALLAEMDKVEGHVAIKGSVAYVPQQAWIQNDSLRENILFGCQLEEPYYRSVIQACALLPDLEILPSGDRTEIGEKGVNLSGGQKQRVSLARAVYSNADIYLFDDPLSAVDAHVGKHIFENVIGPKGMLKNKTRILVTHSMSYLPQVDVIIVMSGGKISEMGSYQELLARDGAFAEFLRTYASHHHHHH | soluble
14 | PEPGKKPVSAFSKKPRSVEVAAGSPAVFEAETERAGVKVRWQRGGSDISASNKYGLATEGTRHTLTVREVGPADQGSYAVIAGSSKVKFDLKVIE | soluble
15 | MGHHHHHHSHMRFFHWFSKWRKLHRDQEYEVTWYISWSPCTKCTRDMATFLAEDPKVTLTIFVARLYYFWDPDYQEALRSLCQKRDGPRATMKIMNYDEFQHCWSKFVYSQRELFEPWNNLPKYYILLHIMLGEILR | not soluble
16 | MSYRKKLTSPEDAVGLIRSGMRVFVSGNAATPTPLLKALAARKDELENVELVHLLQMGEDPFASLEMEGHFRRRSLFVGPADREAVNQGRADYVPVMLHQVPWLFKRGILPLDAAIVQVSPPDEHGFCSLGVEVIATKAAVEAAPIVIAMVNPRMPRTLGDTFVHVSRFTAIVEVDWPLPELKREGFGEVERRIGEHVAGLIEDGATLQMGIGAIPDAVLASLEGRRDLGVHTEMISDGVLEAWEKGLITGAKKSLHPGKIVGTFVLGSERLYRFVHDNPLFELHPADYVNDPFVIAQNRKMVAINSAIEVDLTGQVVADSIGTRIYSGFGGQLDFIRGAARSEGGKPIIALPSTAKGQSRIVPFLKPGAGVVTTRADVHYVVTEWGVAELFGRSLRERAKALIAIAHPDFREALLQGAWERGLLPRGYPGVDLKGLEEKRGRP | soluble
17 | MGSSHHHHHHSSGLVPRGSHMEAIGVLMMCPMSTYLEQELDKRFKLFRYWTQPAQRDFLALQAESIRAVVGNSNAGADAELIDALPKLEIVSSFSVGLDKVDLIKCEEKGVRVTNTPDVLTDDVADLAIGLILAVLRRICECDKYVRRGAWKFGDFKLTTKFSGKRVGIIGLGRIGLAVAERAEAFDCPISYFSRSKKPNTNYTYYGSVVELASNSDILVVACPLTPETTHIINREVIDALGPKGVLINIGRGPHVDEPELVSALVEGRLGGAGLDVFEREPEVPEKLFGLENVVLLPHVGSGTVETRKVMADLVVGNLEAHFSGKPLLTPVV | soluble
